Data as given in patent US20250296992A1 (Genmab, published 2025).

How the values were obtained:
human SLITRK6 on cells [1] = target: T1, human SLITRK6 on cells (human, UniProt Q9H5Y7 27-841); assay: cell-based or functional assay
human SLITRK6 on cells [2] = target: T1, human SLITRK6 on cells; assay: flow cytometry on RT4 cells
Procedure: (§1) The binding activity of mAbs and ADCs was evaluated by flow cytometer (Beckman, Cytoflex). Specifically, cells were incubated with 50 μL of mAbs or ADCs in series dilutions in PBS containing 1% BSA at 4° C. for 30 min. The cells were washed twice with PBS containing 1% BSA, stained with PE-conjugated anti human Fc in PBS containing 1% BSA and then incubated at 4° C. for 20 min. After that the cells were washed twice with PBS and analyzed by a flow cytometer.

human SLITRK6 on cells [3] = target: T1, human SLITRK6 on cells; assay: flow cytometry on SW780 cells
Procedure: as §1

human SLITRK6 on cells [4] = target: T1, human SLITRK6 on cells; assay: flow cytometry on CHP-212 cells
Procedure: as §1

human SLITRK6 on cells [5] = target: T1, human SLITRK6 on cells; assay: flow cytometry on 293F-SLITRK6-C9 cells
Procedure: as §1

[6] = target: T2, human SLITRK6 extracellular domain linked to his tag (human, UniProt Q9H5Y7 27-608); assay: ELISA, coated antigen
T2 construct: extracellular domain; also called huSLITRK6; Hu SLITRK6; not shown: his tag

[7] = target: T3, cynomolgus monkey SLITRK6 extracellular domain linked to his tag (cynomolgus monkey, UniProt G7PVK4 27-608); assay: ELISA, coated antigen
T3 construct: extracellular domain; also called cynoSLITRK6; Cyno SLITRK6; not shown: his tag

human SLITRK6 on cells [8] = target: T1, human SLITRK6 on cells; assay: flow cytometry on RT4 cells; remark: listed apart in the source
Procedure: (§2) The binding activity of mAbs was evaluated by flow cytometer (Beckman, Cytoflex). Specifically, cells were incubated with 50 μL of mAbs or ADCs in series dilutions in PBS containing 1% BSA at 4° C. for 30 minutes. The cells were washed twice with PBS containing 1% BSA, stained with PE-conjugated anti human Fc in PBS containing 1% BSA and then incubated at 4° C. for 20 min. After that the cells were washed twice with PBS and analyzed by a flow cytometer.

human SLITRK6 on cells [9] = target: T1, human SLITRK6 on cells; assay: flow cytometry on SCC-4 cells
Procedure: as §2

human SLITRK6 on cells [10] = target: T1, human SLITRK6 on cells; assay: flow cytometry on SW780 cells; remark: listed apart in the source
Procedure: as §2

human SLITRK6 on cells [11] = target: T1, human SLITRK6 on cells; assay: flow cytometry on CHP-212 cells; remark: listed apart in the source
Procedure: as §2

human SLITRK6 on cells [12] = target: T1, human SLITRK6 on cells; assay: flow cytometry on RT112/84 cells
Procedure: as §2

human SLITRK6 on cells [13] = target: T1, human SLITRK6 on cells; assay: flow cytometry on 293F-huSLITRK6-C9 cells
Procedure: The binding activity of mAbs was evaluated by flow cytometer (Beckman, Cytoflex). Specifically, cells were incubated with 50 μL of mAbs or ADCs in series dilutions in PBS containing 1% BSA at 4° C. for 30 min. The cells were washed twice with PBS containing 1% BSA, stained with PE-conjugated anti human Fc in PBS containing 1% BSA and then incubated at 4° C. for 20 min. After that the cells were washed twice with PBS and analyzed by a flow cytometer.

[14] = target: T2, human SLITRK6 extracellular domain …; assay: BLI; antigen ECD-his on anti-his tips, antibody as analyte; 1:1 fit;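 further: antibody at several concentrations, 180 s association then 300 s dissociation in Tris buffer at pH 6 or 7.5, rate constants from global fitting, KD computed as koff/kon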
Procedure: (§3) Binding kinetic of antibody-antigen was characterized by the bio-layer interferometry (BLI). 100 nM of SLITRK6′ extracellular domain linked to his tag was immobilized on anti-his biosensor tips (Fortebio). The sensors were rinsed with the buffer (50 mM Tris-AcOH, pH 6 or 7.5, 0.05% v/v surfactant P20) for 10 min to remove the unbound molecules, then dipped in the antibody solutions at different concentrations for 180 seconds and interspersed by a rinsing step in the buffer solution for 300 seconds. Binding affinity was calculated using ForteBio Data Acquisition 6.3 software (ForteBio) and was derived by fitting the kinetic data to a 1:1 Langmuir binding model utilizing global fitting algorithms. The dissociation or association equilibrium constant KD was calculated from the binding rate constants as KD=koff/kₒₙ(where koff and kₒₙ represent the dissociation kinetic constant and the association kinetic constant, respectively).

[15] = target: T3, cynomolgus monkey SLITRK6 extracellular …; assay: as above
Procedure: as §3

[16] = target: T2, human SLITRK6 extracellular domain …; assay: BLI binning on huSLITRK6-his; Ab1 = row antibody first, then Ab2 (competitor) = phA108
Procedure: (§4) Epitope binning was characterized by the bio-layer interferometry (BLI). 100 nM of human SLITRK6′ extracellular domain linked to his tag was immobilized on anti-his biosensor tips (Fortebio). The sensors were rinsed with the buffer (50 mM Tris-AcOH, pH 6 or 7.5, 0.05% v/v surfactant P20) for 30 seconds to remove the unbound molecules, then dipped in the 100 nM of antibody 1 solutions for 180 seconds and interspersed by a rinsing step in the buffer solution for 300 seconds. After that, the sensors were dipped in the 100 nM of antibody 2 solutions. The epitope cluster was calculated using ForteBio Data Acquisition 6.3 software.

[17] = target: T2, human SLITRK6 extracellular domain …; assay: BLI binning on huSLITRK6-his; Ab1 = row antibody first, then Ab2 (competitor) = phA290
Procedure: as §4

[18] = target: T2, human SLITRK6 extracellular domain …; assay: BLI binning on huSLITRK6-his; Ab1 = row antibody first, then Ab2 (competitor) = hu1H2-03
Procedure: as §4

[19] = target: T2, human SLITRK6 extracellular domain …; assay: BLI binning on huSLITRK6-his; Ab1 = row antibody first, then Ab2 (competitor) = hu1H2-13
Procedure: as §4

[20] = target: T2, human SLITRK6 extracellular domain …; assay: BLI binning on huSLITRK6-his; Ab1 = row antibody first, then Ab2 (competitor) = hu14G1-03
Procedure: as §4

[21] = target: T2, human SLITRK6 extracellular domain …; assay: BLI binning on huSLITRK6-his; Ab1 = row antibody first, then Ab2 (competitor) = Sirtratumab
Procedure: as §4

B1: phA108-LD038 (8) (antibody, V domains shown)
VH: QVQLVQSGAEVKKPGASVKVSCTASGYIFNDYYLHWVRQAPGQGLEWVGIINPSGGSPVYAQKFQGRVTMTRDTSTNTVYMELSSLRSEDTAVYYCARGMVRGVRLFDYWGQGTLVTVSA
VL: EIVLTQSPATLSLSPGERATLSCRASQSVSSYLAWYQQKPGQTPRLLIYDASNRATGVPARFSGSGSGTDFTLTISSLETEDFAVYYCQQRTNWPLTFGGGTKVEIK
modifications: drug-linker LD038 on cysteines freed by TCEP reduction, DAR 8.0; positions not given
notes: also called phA108 ADC
IC50 (nM), cytotoxicity on 293F-SLITRK6-C9 cells (Cell Titer-Glo) (human SLITRK6 on cells [1]): 0.06 nM | IC50 (nM), cytotoxicity on CHP-212 cells (Cell Titer-Glo) (human SLITRK6 on cells [1]): 2.82 nM | IC50 (nM), cytotoxicity on RT4 cells (Cell Titer-Glo) (human SLITRK6 on cells [1]): 7.29 nM | EC50 (human SLITRK6 on cells [2]): 0.16 nM | EC50 (human SLITRK6 on cells [3]): 0.29 nM | EC50 (human SLITRK6 on cells [4]): 0.14 nM | EC50 (human SLITRK6 on cells [5]): 1.09 nM

B2: phA290-LD038 (8) (antibody, V domains shown)
VH: QVQLVQSGAEVKKPGASVKVSCKASGYTFTSYYMHWVRQAPGQGLEWMGIINPSGGSTSYAQKFQGRVTMTRDTSTSTVYMELSSLRSEDTAVYYCARGFTRYFDYWGQGTLVTVSA
VL: EIVMTQSPGTLSLSPGERATLSCRASQSVSKYLAWYQQRPGQAPRLLIYDASNRATGIPARFSGSGSGTDFTLTVSSLEPEDFAVYYCQQRYNWPLTFGGGTTVEIK
modifications: drug-linker LD038 on cysteines freed by TCEP reduction, DAR 8.0; positions not given
notes: also called phA290 ADC
IC50 (nM), cytotoxicity on CHP-212 cells (Cell Titer-Glo) (human SLITRK6 on cells [1]): 1.22 nM | IC50 (nM), cytotoxicity on RT4 cells (Cell Titer-Glo) (human SLITRK6 on cells [1]): 5.9 nM | EC50 (human SLITRK6 on cells [2]): 0.16 nM | EC50 (human SLITRK6 on cells [3]): 0.27 nM | EC50 (human SLITRK6 on cells [4]): 0.13 nM | EC50 (human SLITRK6 on cells [5]): 0.79 nM

B3: Sirtratumab-LD038 (8) (antibody, V domains shown)
VH: QVQLVESGGGVVQPGRSLRLSCAASGFTFSSYGMHWVRQAPGKGLEWVAVIWYDGSNQYYADSVKGRFTISRDNSKNTLFLQMHSLRAEDTAVYYCARGLTSGRYGMDWGQGTTVTVSS
VL: DIVMTQSPLSLPVTPGEPASISCRSSQSLLLSHGFNYLDWYLQKPGQSPQLLIYLGSSRASGVPDRFSGSGSGTDFTLKISRVEAEDVGLYYCMQPLQIPWTFGQGTKVEIK
modifications: drug-linker LD038 on cysteines freed by TCEP reduction, DAR 8.0; positions not given
notes: also called Sirtratumab ADC
IC50 (nM), cytotoxicity on 293F-SLITRK6-C9 cells (Cell Titer-Glo) (human SLITRK6 on cells [1]): 0.06 nM | IC50 (nM), cytotoxicity on CHP-212 cells (Cell Titer-Glo) (human SLITRK6 on cells [1]): 5.56 nM | IC50 (nM), cytotoxicity on RT4 cells (Cell Titer-Glo) (human SLITRK6 on cells [1]): 9.25 nM | EC50 (human SLITRK6 on cells [2]): 0.31 nM | EC50 (human SLITRK6 on cells [3]): 0.38 nM | EC50 (human SLITRK6 on cells [4]): 0.49 nM | EC50 (human SLITRK6 on cells [5]): 1.32 nM

B4: hu1H2-03-LD038 (8) (antibody, V domains shown)
VH: EVQLVESGGGLVQPGGSLRLSCAASGFTFSDYGLHWVRQAPGKGLEWVSYISSGSSTVYFADTLKGRFTISRDNAKNSLYLQMNSLRAEDTAVYYCTRGTWYFDVWGRGTLVTVSS
VL: DIQMTQSPSSLSASVGDRVTITCRTSENIHSYLAWYQQKPGKSPQLLVYNAKTLADGVPSRFSGSGSGTDYTLTISSLQPEDFGTFYCQHFWTTSRTFGGGTKVEIK
modifications: drug-linker LD038 on cysteines freed by TCEP reduction, DAR 8.0; positions not given
notes: also called hu1H2-03 ADC
IC50 (nM), cytotoxicity on CHP-212 cells (Cell Titer-Glo) (human SLITRK6 on cells [1]): 0.83 nM | IC50 (nM), cytotoxicity on RT4 cells (Cell Titer-Glo) (human SLITRK6 on cells [1]): 7.02 nM | EC50 (human SLITRK6 on cells [2]): 0.47 nM | EC50 (human SLITRK6 on cells [3]): 0.44 nM | EC50 (human SLITRK6 on cells [4]): 0.4 nM | EC50 (human SLITRK6 on cells [5]): 1.35 nM

B5: hu14G1-03-LD038 (8) (antibody, V domains shown)
VH: EVQLVESGGGLVQPGGSLRLSCAASGFTFSDYGMHWVRQAPGKGLEWVSYISPGSSTIYYADTMKGRFTISRDNAKNSLYLQMNSLRAEDTAVYYCARAYGGSYWYFAVWGQGTLVTVSS
VL: DIQMTQSPSSLSASVGDRVTITCRASGNIHSYLAWYQQKPGKSPQLLVYNAKTLADGVPSRFSGSGSGTDYTLTISSLQPEDFGTYYCQHFWSTPYTFGGGTKLEIK
modifications: drug-linker LD038 on cysteines freed by TCEP reduction, DAR 8.0; positions not given
notes: also called hu14G1-03 ADC
IC50 (nM), cytotoxicity on CHP-212 cells (Cell Titer-Glo) (human SLITRK6 on cells [1]): 0.91 nM | IC50 (nM), cytotoxicity on RT4 cells (Cell Titer-Glo) (human SLITRK6 on cells [1]): 9.56 nM | EC50 (human SLITRK6 on cells [2]): 0.46 nM | EC50 (human SLITRK6 on cells [3]): 0.64 nM | EC50 (human SLITRK6 on cells [4]): 0.65 nM | EC50 (human SLITRK6 on cells [5]): 1.79 nM

B6: hu1H2-03 (antibody, V domains shown)
VH: EVQLVESGGGLVQPGGSLRLSCAASGFTFSDYGLHWVRQAPGKGLEWVSYISSGSSTVYFADTLKGRFTISRDNAKNSLYLQMNSLRAEDTAVYYCTRGTWYFDVWGRGTLVTVSS
VL: DIQMTQSPSSLSASVGDRVTITCRTSENIHSYLAWYQQKPGKSPQLLVYNAKTLADGVPSRFSGSGSGTDYTLTISSLQPEDFGTFYCQHFWTTSRTFGGGTKVEIK
notes: see m20
EC50 [6]: 0.04 nM | EC50 [7]: 0.05 nM | EC50 (human SLITRK6 on cells [8]): 0.28 nM | EC50 (human SLITRK6 on cells [2]): 0.36 nM | EC50 (human SLITRK6 on cells [9]): 0.27 nM | EC50 (human SLITRK6 on cells [10]): 0.41 nM | EC50 (human SLITRK6 on cells [3]): 0.44 nM | EC50 (human SLITRK6 on cells [11]): 0.22 nM | EC50 (human SLITRK6 on cells [4]): 0.24 nM | EC50 (human SLITRK6 on cells [12]): 0.23 nM | EC50 (human SLITRK6 on cells [5]): 1.33 nM | EC50 (human SLITRK6 on cells [13]): 1.33 nM | Kd [14]: 0.92 nM | koff [14]: 0.000441 s⁻¹ | kon [14]: 480000 M⁻¹ s⁻¹ | Kd [15]: 1.27 nM | koff [15]: 0.000444 s⁻¹ | kon [15]: 348000 M⁻¹ s⁻¹ | epitope binning signal [16]: 0.304 | epitope binning signal [17]: 0.299 | epitope binning signal [18]: 0.0113 | epitope binning signal [19]: 0.0122 | epitope binning signal [20]: 0.0077 | epitope binning signal [21]: 0.299

B7: hu1H2-13 (antibody, V domains shown)
VH: EVQLVESGGGLVQPGGSLRLSCAASGFTFSDYGLHWVRQAPGKGLEWVAYISSGSSTVYFADTLKGRFTISRDNAKNSLYLQMNSLRAEDTAVYYCTRGTWYFDVWGRGTLVTVSS
VL: DIQMTQSPSSLSASVGDRVTITCRTSENIHSYLAWYQQKPGKSPQLLVYNAKTLADGVPSRFSGSGSGTDYTLTISSLQPEDFGTFYCQHFWTTSRTFGGGTKVEIK
EC50 [6]: 0.07 nM | EC50 [7]: 0.05 nM | EC50 (human SLITRK6 on cells [8]): 0.27 nM | EC50 (human SLITRK6 on cells [2]): 0.27 nM | EC50 (human SLITRK6 on cells [9]): 0.23 nM | EC50 (human SLITRK6 on cells [10]): 0.45 nM | EC50 (human SLITRK6 on cells [3]): 0.44 nM | EC50 (human SLITRK6 on cells [11]): 0.22 nM | EC50 (human SLITRK6 on cells [4]): 0.22 nM | EC50 (human SLITRK6 on cells [12]): 0.17 nM | EC50 (human SLITRK6 on cells [5]): 1.32 nM | EC50 (human SLITRK6 on cells [13]): 1.32 nM | Kd [14]: 0.916 nM | koff [14]: 0.00044 s⁻¹ | kon [14]: 480000 M⁻¹ s⁻¹ | Kd [15]: 1.36 nM | koff [15]: 0.000513 s⁻¹ | kon [15]: 376000 M⁻¹ s⁻¹ | epitope binning signal [16]: 0.299 | epitope binning signal [17]: 0.302 | epitope binning signal [18]: 0.0288 | epitope binning signal [19]: 0.0284 | epitope binning signal [20]: 0.0231 | epitope binning signal [21]: 0.312

B8: hu1H2-13-LD038 (8) (antibody, V domains shown)
VH: EVQLVESGGGLVQPGGSLRLSCAASGFTFSDYGLHWVRQAPGKGLEWVAYISSGSSTVYFADTLKGRFTISRDNAKNSLYLQMNSLRAEDTAVYYCTRGTWYFDVWGRGTLVTVSS
VL: DIQMTQSPSSLSASVGDRVTITCRTSENIHSYLAWYQQKPGKSPQLLVYNAKTLADGVPSRFSGSGSGTDYTLTISSLQPEDFGTFYCQHFWTTSRTFGGGTKVEIK
modifications: drug-linker LD038 on cysteines freed by TCEP reduction, DAR 8.0; positions not given
notes: also called hu1H2-13 ADC
IC50 (nM), cytotoxicity on 293F-SLITRK6-C9 cells (Cell Titer-Glo) (human SLITRK6 on cells [1]): 0.06 nM | IC50 (nM), cytotoxicity on CHP-212 cells (Cell Titer-Glo) (human SLITRK6 on cells [1]): 0.93 nM | IC50 (nM), cytotoxicity on RT4 cells (Cell Titer-Glo) (human SLITRK6 on cells [1]): 5.06 nM | EC50 (human SLITRK6 on cells [2]): 0.38 nM | EC50 (human SLITRK6 on cells [3]): 0.61 nM | EC50 (human SLITRK6 on cells [4]): 0.5 nM | EC50 (human SLITRK6 on cells [5]): 1.6 nM
